Here are results for three molecules from patent US20080300209, “GENE EXPRESSION AND PAIN” (ADYNXX, INC., published 2008).

The target in series [1] is T1, EGR1 (Homo sapiens, UniProt P18146 P18146:1-543). The experiment in a line: competition; ELISA vs 128 nM biotinylated SEQ 40 probe, 10 ug nuclear extract. The conditions noted are these: protein: extract; tags: endogenous in nuclear extract of TPA-stimulated K-562 cells (Activemotif). The protocol: (§1) FIG. 2. A. Relative affinity. Quantitative competition ELISA involving hEGR1 were performed using a constant concentration of biotinylated SEQ ID NO.: 40 (128 nM) as the probe and 10 μg of protein extract. The probe-protein mix was incubated with increasing concentrations of SEQ ID NO.: 40, SEQ ID NO.: 41 or SEQ ID NO.: 42 competitors. The inhibition of hEGR1 binding by the probe was measured for each competitor at various concentrations and the resulting inhibition curves were fitted to an exponential decay model. […] Mean±SEM are given as a percentage of the maximum hEGR1 binding obtained with the probe in absence of competitor; n=2-4. B. Relative specificity. The relative binding of EGR1 oligonucleotide decoy sequences to hSP1 and hWT1 transcription factors was measured using quantitative ELISA. Top graph: representative OD binding values of SEQ ID NO.: 40 (128 nM) to either hSP1 or hWT1 transcription factors, as compared to hEGR1 binding, was detected with transcription factor-specific antibodies in either the presence or absence of SEQ ID NO.: 42 competitor (512 nM). For comparison, SEQ ID NO.: 11 binding to hSP1 is shown. […]
(§2) The affinity and specificity of decoy sequences for their transcription factor targets was measured with colorimetric transcription factor ELISA (Enzyme linked immuno adsorbent) kits (Panomics, Calif., USA). […]

The target of series [2] is T2, EGR1 (endogenous, HL60 cells) (Homo sapiens, UniProt P18146 P18146:1-543). The experiment in a line: cell_activity; inhibition of CDK5R1 mRNA in HL60 cells 48 h after vitamin D3; figure legend states 502 nM.
Series [3] concerns the target T2, EGR1 (endogenous, HL60 cells). The experiment in a line: cell_activity; inhibition of CDK5R1 mRNA in HL60 cells 48 h after vitamin D3; figure legend states 443 nM.
Series [4] addresses T1, EGR1. Description: competition; ELISA; self-competition vs 128 nM biotinylated SEQ 40 probe, 10 ug nuclear extract. Particulars: protein: extract; tags: endogenous in nuclear extract of TPA-stimulated K-562 cells (Activemotif); label: biotin (probe). The protocol:
as §1, §2

Series [5] deals with T2, EGR1 (endogenous, HL60 cells). Description: cell_activity; inhibition of CDK5R1 mRNA in HL60 cells 48 h after vitamin D3; figure legend states 136 nM.

T1 sequence (P18146 whole entry, one chain of several): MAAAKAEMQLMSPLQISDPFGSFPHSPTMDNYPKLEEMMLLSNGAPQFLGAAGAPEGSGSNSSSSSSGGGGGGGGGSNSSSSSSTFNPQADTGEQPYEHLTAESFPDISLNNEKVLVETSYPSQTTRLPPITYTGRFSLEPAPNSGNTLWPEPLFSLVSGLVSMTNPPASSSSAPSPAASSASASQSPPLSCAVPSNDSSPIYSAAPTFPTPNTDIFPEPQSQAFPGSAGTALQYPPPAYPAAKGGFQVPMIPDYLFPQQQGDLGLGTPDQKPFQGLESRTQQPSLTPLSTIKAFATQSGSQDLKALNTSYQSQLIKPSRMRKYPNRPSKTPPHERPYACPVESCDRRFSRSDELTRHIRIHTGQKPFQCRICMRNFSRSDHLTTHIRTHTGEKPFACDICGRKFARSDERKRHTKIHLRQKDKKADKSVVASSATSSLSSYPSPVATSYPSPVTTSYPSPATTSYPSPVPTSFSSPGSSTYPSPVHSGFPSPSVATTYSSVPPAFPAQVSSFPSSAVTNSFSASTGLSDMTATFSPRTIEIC
T2 sequence (P18146 whole entry, one chain of several): as above

B1: SEQ ID NO 41 EGR1 consensus decoy (dsDNA)
DNA 1: GATGCGTGGGCGTAGG
DNA 2: CCTACGCCCACGCATC
As a reminder, the IC50 is the concentration needed to halve the response being measured. A low value points to greater potency in that assay. With B1, the values for the IC50 (with EGR1 [1]; in series [2]) were 250 nM and 529 nM, respectively.

B2: SEQ ID NO 40 double EGR1 site decoy (dsDNA)
DNA 1: GTTATGCGTGGGCGTAGATGCGGGGGCGTTATAG
DNA 2: CTATAACGCCCCCGCATCTACGCCCACGCATAAC
As for B2, the IC50 in series [3] amounted to 544 nM; with EGR1 [4] it was 215 nM.

B3: SEQ ID NO 42 fused EGR1 sites decoy (dsDNA)
DNA 1: GTATGCGTGGGCGGTGGGCGTAG
DNA 2: CTACGCCCACCGCCCACGCATAC
Turning to B3, the IC50 with EGR1 [1] is 99 nM; in series [5], 150 nM.
